# In article doi:10.1101/2024.08.28.609967 (bioRxiv, 2024):
# B1: GFP-tagged ATG13 (191–230aa) (peptide, UniProt O75143 191-230, looked up)
# chain: INLAFMSTRQFERTPPIMGIIIDHFVDRPYPSSSPMHPCN
# notes: source: E. coli Rosetta pLysS, purified (glutathione beads, TEV cleavage, SEC on S75); not shown: GST, N-terminal, cleaved; EGFP, N-terminal, kept
# B2: GFP-tagged ATG13 IDR (Δ191–205aa) (domain or fragment, UniProt O75143 205-517, looked up)
# chain: PPIMGIIIDHFVDRPYPSSSPMHPCNYRTAGEDTGVIYPSVEDSQEVCTTSFSTSPPSQLSSSRLSYQPAALGVGSADLAYPVVFAAGLNATHPHQLMVPGKEGGVPLAPNQPVHGTQADQERLATCTPSDRTHCAATPSSSEDTETVSNSSEGRASPHDVLETIFVRKVGAFVNKPINQVTLTSLDIPFAMFAPKNLELEDTDPMVNPPDSPETESPLQGSLHSDGSSGGSSGNTHDDFVMIDFKPAFSKDDILPMDLGTFYREFQNPPQLSSLSIDIGAQSMAEDLDSLPEKLAVHEKNVREFDAFVETLQ
# notes: source: E. coli Rosetta pLysS, purified (glutathione beads, TEV cleavage, SEC); not shown: GST, N-terminal, cleaved; EGFP, N-terminal, kept
# B3: GFP-FIP200 C-terminal region (CTR) (residues 1429–1591) (domain or fragment, UniProt Q8TDY2-2 1429-1591, looked up)
# chain: ADEGRVDSAMETSMMSVQENIHMLSEEKQRIMLLERTLQLKEEENKRLNQRLMSQSMSSVSSRHSEKIAIRDFQVGDLVLIILDERHDNYVLFTVSPTLYFLHSESLPALDLKPASGASRRPWVLGKVMEKEYCQAKKAQNRFKVPLGTKFYRVKAVSWNKKV
# notes: FIP200 (RB1CC1), C-terminal region with the Claw domain and a portion of the coiled-coil, residues 1429-1591; also called GFP-tagged FIP200-CTR; GFP-FIP200(CTR); source: E. coli Rosetta pLysS, purified (His-Trap, TEV cleavage, SEC); not shown: His6, N-terminal, cleaved; GFP, N-terminal, kept
# B4: mCherry-tagged ATG13 IDR (191–517aa) (domain or fragment, UniProt O75143 191-517, looked up)
# chain: INLAFMSTRQFERTPPIMGIIIDHFVDRPYPSSSPMHPCNYRTAGEDTGVIYPSVEDSQEVCTTSFSTSPPSQLSSSRLSYQPAALGVGSADLAYPVVFAAGLNATHPHQLMVPGKEGGVPLAPNQPVHGTQADQERLATCTPSDRTHCAATPSSSEDTETVSNSSEGRASPHDVLETIFVRKVGAFVNKPINQVTLTSLDIPFAMFAPKNLELEDTDPMVNPPDSPETESPLQGSLHSDGSSGGSSGNTHDDFVMIDFKPAFSKDDILPMDLGTFYREFQNPPQLSSLSIDIGAQSMAEDLDSLPEKLAVHEKNVREFDAFVETLQ
# notes: also called mCh-IDR; source: E. coli Rosetta pLysS, purified (His-Trap, SEC); not shown: mCherry, N-terminal, kept
# B5: GFP-tagged ATG13 IDR (191–517aa) (domain or fragment, UniProt O75143 191-517, looked up)
# chain: B4 chain
# notes: Addgene numbers of the GFP-ATG13 constructs are tied to the ranges by their order in the list; also called ATG13 IDR wild-type (WT); source: E. coli Rosetta pLysS, purified (glutathione beads, TEV cleavage, SEC); not shown: GST, N-terminal, cleaved; EGFP, N-terminal, kept
# B6: GFP-tagged ATG13 (206–230) (peptide, UniProt O75143 206-230, looked up)
# chain: PIMGIIIDHFVDRPYPSSSPMHPCN
# notes: ATG13 residues 206-230; also called ATG13 IDR fragment (206–230aa); source: E. coli Rosetta pLysS, purified (glutathione beads, TEV cleavage, SEC on S75); not shown: GST, N-terminal, cleaved; EGFP, N-terminal, kept
# B7: FUNDC1(1–50aa)-GST (domain or fragment, human, UniProt Q8IVP5 1-50, looked up)
# chain: MATRNPPPQDYESDDDSYEVLDLTEYARRHQWWNRVFGHSSGPMVEKYSV
# notes: FUNDC1, cytosol-exposed domain, residues 1-50; also called FUNDC1-GST; source: E. coli Rosetta pLysS, purified (glutathione beads, SEC); not shown: GST, C-terminal, kept
# What was measured:
# Details in all cases: both partners purified
# mCherry-WIPI3 = target: T1, mCherry-WIPI3 (UniProt Q5MNZ6 1-344); assay: microscopy-based bead assay; GFP-trap agarose beads coated with GFP-tagged bait (ULK1 complex, ATG13/101, FIP200, ULK1 K46I, ATG13 IDR and its fragments or variants; 5 uM), mCherry-tagged WIPI proteins as prey; 25 mM Tris-HCl pH 7.4, 150 mM NaCl, 1 mM DTT; confocal imaging
# T1 construct: also called mCherry-tagged WIPI3; source: E. coli Rosetta pLysS, purified (His-Trap, SEC); not shown: mCherry, N-terminal, kept
# T1 sequence (Q5MNZ6 whole entry, the tested form may be a part): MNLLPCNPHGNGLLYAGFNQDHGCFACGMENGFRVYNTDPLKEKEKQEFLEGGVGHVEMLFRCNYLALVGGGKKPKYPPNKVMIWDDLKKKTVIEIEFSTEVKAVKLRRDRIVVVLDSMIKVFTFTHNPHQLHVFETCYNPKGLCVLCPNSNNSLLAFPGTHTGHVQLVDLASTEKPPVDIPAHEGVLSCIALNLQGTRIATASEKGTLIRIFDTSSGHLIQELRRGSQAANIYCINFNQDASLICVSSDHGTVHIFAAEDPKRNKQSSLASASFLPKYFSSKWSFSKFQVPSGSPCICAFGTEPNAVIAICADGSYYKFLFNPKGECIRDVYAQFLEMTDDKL
# GST-TEX264 (28–313aa) = target: T2, GST-TEX264 (28–313aa) (human, UniProt Q9Y6I9 28-313); assay: microscopy-based bead assay; glutathione beads coated with GST-tagged cargo receptors (5 uM), GFP-FIP200 CTR (1429-1591) as prey, 30 min; 25 mM Tris-HCl pH 7.4, 150 mM NaCl, 1 mM DTT; confocal imaging
# T2 construct: TEX264, cytosol-exposed domain, residues 28-313, synthetic gene; also called GST-tagged TEX264; source: E. coli Rosetta pLysS, purified (glutathione beads, SEC); not shown: GST, N-terminal, kept
# T2 sequence (looked up): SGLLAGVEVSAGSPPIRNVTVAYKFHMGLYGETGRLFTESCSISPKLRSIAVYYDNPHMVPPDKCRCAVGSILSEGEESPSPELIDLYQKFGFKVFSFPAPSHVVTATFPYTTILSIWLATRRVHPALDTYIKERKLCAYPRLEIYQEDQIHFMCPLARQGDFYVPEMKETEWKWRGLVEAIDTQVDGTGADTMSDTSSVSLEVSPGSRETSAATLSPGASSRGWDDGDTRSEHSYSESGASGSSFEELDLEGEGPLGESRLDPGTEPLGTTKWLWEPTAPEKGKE
# BCL2L13(1–465aa)-GST = target: T3, BCL2L13(1–465aa)-GST (human, UniProt Q9BXK5 1-465); assay: as above
# T3 construct: BCL2L13, cytosol-exposed domain, residues 1-465; also called BCL2L13-GST; source: E. coli Rosetta pLysS, purified (glutathione beads, SEC); not shown: GST, C-terminal, kept
# T3 sequence (Q9BXK5 1-465): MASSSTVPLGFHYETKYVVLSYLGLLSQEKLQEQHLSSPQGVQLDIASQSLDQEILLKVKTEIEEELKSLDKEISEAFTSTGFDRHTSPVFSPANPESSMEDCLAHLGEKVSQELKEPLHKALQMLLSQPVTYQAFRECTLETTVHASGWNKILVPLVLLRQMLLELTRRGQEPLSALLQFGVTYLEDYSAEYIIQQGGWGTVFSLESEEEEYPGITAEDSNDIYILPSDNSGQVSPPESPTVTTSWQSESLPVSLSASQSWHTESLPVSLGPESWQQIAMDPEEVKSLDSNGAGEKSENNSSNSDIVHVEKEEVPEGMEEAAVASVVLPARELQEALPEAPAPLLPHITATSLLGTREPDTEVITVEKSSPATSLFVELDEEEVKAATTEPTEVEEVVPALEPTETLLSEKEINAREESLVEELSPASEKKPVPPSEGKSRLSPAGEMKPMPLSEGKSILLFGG
# CCPG1-GST (1–212aa) = target: T4, CCPG1-GST (1–212aa) (human, UniProt Q9ULG6 1-212); assay: as above
# T4 construct: CCPG1, cytosol-exposed domain, residues 1-212, synthetic gene; also called GST-tagged CCPG1; source: E. coli Rosetta pLysS, purified (glutathione beads, SEC); not shown: GST, C-terminal, kept
# T4 sequence (looked up): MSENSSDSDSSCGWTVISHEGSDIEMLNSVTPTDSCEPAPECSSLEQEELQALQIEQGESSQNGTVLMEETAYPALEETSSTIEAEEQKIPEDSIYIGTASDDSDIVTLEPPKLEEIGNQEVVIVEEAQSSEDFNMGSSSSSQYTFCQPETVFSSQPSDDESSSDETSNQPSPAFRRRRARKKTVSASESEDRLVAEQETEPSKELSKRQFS
# FKBP8-GST (1–391aa) = target: T5, FKBP8-GST (1–391aa) (human, UniProt Q14318 1-391); assay: as above
# T5 construct: FKBP8, cytosol-exposed domain, residues 1-391, synthetic gene; also called GST-tagged FKBP8; source: E. coli Rosetta pLysS, purified (glutathione beads, SEC); not shown: GST, C-terminal, kept
# T5 sequence (Q14318 1-391): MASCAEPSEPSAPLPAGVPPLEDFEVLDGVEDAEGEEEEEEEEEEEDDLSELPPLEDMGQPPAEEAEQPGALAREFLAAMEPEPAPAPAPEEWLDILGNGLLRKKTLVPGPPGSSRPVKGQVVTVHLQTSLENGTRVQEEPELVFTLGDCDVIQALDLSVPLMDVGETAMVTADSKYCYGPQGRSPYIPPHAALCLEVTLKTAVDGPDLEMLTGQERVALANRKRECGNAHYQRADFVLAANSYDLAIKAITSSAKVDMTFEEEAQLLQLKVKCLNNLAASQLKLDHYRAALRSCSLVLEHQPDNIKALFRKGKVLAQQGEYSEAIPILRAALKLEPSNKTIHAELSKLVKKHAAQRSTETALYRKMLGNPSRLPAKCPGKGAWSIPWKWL
# GST-FAM134C (250–466aa) = target: T6, GST-FAM134C (250–466aa) (human, UniProt Q86VR2 250-466); assay: as above
# T6 construct: FAM134C, cytosol-exposed domain, residues 250-466, synthetic gene; also called GST-tagged FAM134C; source: E. coli Rosetta pLysS, purified (glutathione beads, SEC); not shown: GST, N-terminal, kept
# T6 sequence (Q86VR2 250-466): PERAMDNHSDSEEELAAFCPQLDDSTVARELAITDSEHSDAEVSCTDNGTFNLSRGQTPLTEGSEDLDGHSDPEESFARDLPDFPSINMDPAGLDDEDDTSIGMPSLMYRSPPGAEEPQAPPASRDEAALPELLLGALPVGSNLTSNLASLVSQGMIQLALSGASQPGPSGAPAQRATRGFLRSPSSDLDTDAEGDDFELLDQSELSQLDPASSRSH
# GST-WIPI3 = target: T7, GST-WIPI3 (UniProt Q5MNZ6 1-344); assay: microscopy-based bead assay; glutathione beads coated with GST-tagged WIPI2d or WIPI3 (5 uM), mCherry-tagged ATG13 constructs as prey; 25 mM Tris-HCl pH 7.4, 150 mM NaCl, 1 mM DTT; confocal imaging
# T7 construct: WIPI3 (WDR45B); Addgene numbers are tied to WIPI1/2/3/4 by their order in the list; also called GST-tagged WIPI3; GST-TEV-WIPI3; source: FreeStyle HEK293F cells, transfected, purified (glutathione beads, SEC); not shown: GST, N-terminal, kept
# T7 sequence (Q5MNZ6 whole entry): as the sequence (Q5MNZ6 whole entry, the tested form may be a part) above
# [1] = target: B3; assay: microscopy-based bead assay; as a2 (GFP-FIP200 CTR prey) with kinases TBK1, MBP-ULK1, CK2 or Src (Y530F) and 10 mM MgCl2, 100 uM ATP
binder,measurement,setting,value
B1,binding result,mCherry-WIPI3,binds
B2,binding result,mCherry-WIPI3,binds
B3,binding result,GST-TEX264 (28–313aa),binds
same,binding result,BCL2L13(1–465aa)-GST,binds
same,binding result,CCPG1-GST (1–212aa),binds
same,binding result,FKBP8-GST (1–391aa),binds
same,binding result,GST-FAM134C (250–466aa),binds
B4,binding result,GST-WIPI3,binds
B5,binding result,mCherry-WIPI3,binds
B6,binding result,mCherry-WIPI3,binds
B7,binding result,[1],binds
